Assay results published in paper PMC4872226, “A rationally engineered yeast pyruvyltransferase Pvg1p introduces sialylation-like properties in neo-human-type complex oligosaccharide” (Scientific Reports, 2016).

Target: the molecule itself
Assay: crystal structure; hanging-drop vapor diffusion at 20 °C; 10 mg/mL Pvg1p in 100 mM MOPS-NaOH pH 7.4 with 20 mM PEP and 5 mM pNP-β-Gal; well solution with 10 mM zinc chloride; 2.46 Å; dimer in the asymmetric unit

B1: fission yeast pyruvyltransferase Pvg1p (enzyme, Schizosaccharomyces pombe, UniProt Q9UT27 32-401, looked up)
chain: DLQTLKNPSSLTSPSSSTSVDKKKPLFTKSPRNSASCESTITLQSNLLFTYYKHYFAGIKKVALIGFPDHPNKGDSAIYVAEKKLLDALNIEVVYITAQEADYSASELKSIISDIPRDEFALAFHGGGNFGDLYPDHQHLRELVVRDFPSFTTISFPQSVWYNEQQLLEQASILYAENPNITLVTRDRQSYGFAVDAFGKHNEVLLTPDIVFFMGPIPEIREATPITHDVLILARLDHEGGQQHGAEDYYRDTLNAANLTYSVEDWLLWDPPVAQNPDSSFDDRGQARYEAGAEFLASARVVITDRLHAHILSTLMGIPHIVVENSQMGKITNYHNTWLHGCTLDGVSVVVDSVDKALSLLLEWNEAGYF
notes: Pvg1p, pyruvyltransferase of Schizosaccharomyces pombe; the D32-F401 portion (without the predicted N-terminal transmembrane region) was used for crystallization; disulfide bond C68-C373 seen in the crystal structure; Expression plasmid pET32b-pvg1; also called recombinant Pvg1p
For B1, the “stoichiometry N” value was 2.
